# Data: the DeepSol protein solubility set
# Test: soluble on expression in E. coli; label from the status in PepcDB or PDB records
row,Sequence,soluble on expression in E. coli
1,IGPVQYHIGGTITYTTNKLIDLGATSVLKSGFVGKQQGYPLNSYFGLRYVGKIQTQEELEKYKYYYLDGNGIGMQDNLRLGDHMFEDVNGDGKLDQNDYVYLGTDDPKLSYSINIGLEWKGFDLSAIFQGVGRRTVFRGGEGNETWRVPMSAIYLNTTTQSIGNTWNPENRNAYYPSYTSIGSINNYNYQCSSWSVENGAYLRLKNLTLGYTLPASWLAKTNAISKLRIYFTGADLWEHSKLRDGWDPEASRKTKDLGRYPFNRTFTVGVNATF,not soluble
2,MKILVFGGTRFFGKKLVERLVSEGHDVTIGTRGKTEDNFGDTVKRVVLNRESRDALFQLAKEDWDVIYDNICFSPKEALYAVDAFKGKVKRYIYTSSLSVYSQKGRALVEADFNPEHYEIVIGDKEDFDYGEGKRLAEAVFFQKASFPVVAVRFPIVLGLDDYTKRLHFHINHIKNHQEIGISNGQAEIGFITSDEAAHFLEWVGVESDLTGPVNATSNGTYALNGFIKMLEEKIGELALVEEVTDDVDDSPFGIEKTYYLDNAKATEAGFVFNDLKVWLPALVTDILKENLEHHHHHH,not soluble
3,MGSDKIHHHHHHMTLTKEQLLNRGIEVIDKAENEGITLRVIGGAAIALIAKKGSELYPRVYKDIDYFGLSSQSTKISRFLEGIGLIPNKRFNALHGHIRLMFFDPIINSTVDVFLDEFVMCHKLVLKDRLRIMKYTIPTSDLFLTKMQIIQLTENDKKDIAALLYDVELGERDDEKTMNYNYIAKILSEDWGFYKTYTINHDRVLEFMKNDKNREIIEPKLVKLREIIEKHPKSIKWKMRAKIGEKVKWYEEPEEVNTNFTQQ,not soluble
4,MSLITDLFKRRIHQMEEKKKKNIGFNIIKSDPTDGHGGFGGGSLSLDNVSPVFVDVEAGDAHVDIGAMHARSTVEKGIKFLTNQEDVPNGKPYWLVWVTIDRKQEGPYYAGVTACFMTVDREIRRGYKLLPEHVNRLDKSIKRHIIVDHMDDKSKGILADFLKNHDMGMWERAEDQLKKDLASSEGHHHHHH,soluble
5,MKIVVIGATGIIGKAIVAELNPRHEIISASYKNSDIQVDITSKQSIDAMYKKLNTIDAIVLATGKVHFAALKDMGEDDYKIGLTNKLMGQVNVVLAGLEYINDNGSFTLTSGILNRDPILYGSSAAMVNGALDGFIKSAALEMPRGIRINGVSPTVITEAMENYGPYFRGYEPVSAARAALAYSKSIEGAQTGQVYCVGLEHHHHHH,not soluble
6,MIKESTLHISFMAVRQTMRRVISRIVPPREVEDIVQETYVRICQVENKEAIKQPRSFLLKTAKNLAIDHLKRADIRLVDTVDNMAEFEHLVSADDAIYQQVATDKEFAQFCEAIRQLPIQCRKAFVLKKVYGYSQKEIAKKLAISESTVEKHIGLGVKRCTYFMMQLTKEERTETMKNSKKTHQVRRDL,not soluble
7,MSLKDTFSVLLIEDSNADYRLIQEYLGESQSPSFQISRSTDFSAGLSFITNESPDLVMLDLSLPDRTGLEALSEIKRKFPQIPVIICSGAEDKDITVNALQIGAQDYVYKGKFDSYSLSRSLVFAYERNRLALELEKKSVFEQESEERYRLFFQYNPHPAFLFEHDSLEILEINRAVLEKYGYEEKDLIGKSILQIFELSDFDKVKQEIIFFQFGANQASSFVHKKKNGEKLIADTTVYKFRYQNQILDLAVVTDITEMVRNRESILATLAEKDALIQEIHHRVKNNMQIMISLLNLQADNAMSRNLTAKELYNLLKDTESRVFSMSLVHNELYKSNDLSHVDFHSYLNMLLENLWNLYGVGLKIKHLVEAQGLVLSMNIAISLGLIVCELVTNAIKHAFPDGYEGLLKIFARCELGSTIVTIEDNGKGIPKEMISKNHETLGLQLVNILTKQIQGKLHLEVLDPGTKFEIRFPEQKGTVQRKEGHHHHHH,not soluble
8,GSMSAKDERAREILRGFKLNWMNLRDAETGKILWQGTEDLSVPGVEHEARVPKKILKCKAVSRELNFSSTEQMEKFRLEQKVYFKGQCLEEWFFEFGFVIPNSTNTWQSLIEAAPESQMMPASVLTGNVIIETKFFDDDLLVSTSRVRLFYV,soluble
9,APTPAQMPSPTSFSDSIKQLAAETLPKYMQQLNSLDAEMLQKNHDQFATGSGPLRGSITQCQGLMQFCGGELQAEASAILNTPVCGIPFSQWGTIGGAASAYVASGVDLTQAANEIKGLAQQMQKLLSLMHHHHHH,soluble
10,MGSDKIHHHHHHMAKDIEISASESKFILEALRQNYRLDGRSFDQFRDVEITFGKEFGDVSVKMGNTKVHCRISCQIAQPYEDRPFEGLFVISTEISPMAGSQFENGNITGEDEVLCSRIIEKSVRRSGALDVEGLCIVAGSKCWAVRADVHFLDCDGGFIDASCIAVMAGLMHFKKPDITVHGEQIIVHPVNEREPVPLGILHIPICVTFSFFNPQDTEENIKGETNSEISIIDATLKEELLRDGVLTVTLNKNREVVQVSKAGGLPMDALTLMKCCHEAYSIIEKITDQILQLLKEDSEKRNKYAAMLTSENAREI,not soluble
11,MSDDEAAVPGNKPIRLPKKAAKVKNKAPAQLQITAEQLLREAKERELELIPPAPKTKITDPDELKEYQRKKRKEFEDGIRKNRMQLANWIKYGKWEESIGEIQRARSVFERALDVDHRSISIWLQYAEMEMRCKQINHARNVFDRAITIMPRAMQFWLKYSYMEEVIENIPGARQIFERWIEWEPPEQAWQTYINFELRYKEIDRARSVYQRFLHVHGINVQNWIKYAKFEERNGYIGNARAAYEKAMEYFGEEDINETVLVAFALFEERQKEHERARGIFKYGLDNLPSNRTEEIFKHYTQHEKKFGERVGIEDVIISKRKTQYEKMVEENGYNYDAWFDYLRLLENEETDREEVEDVYERAIANIPPHSEKRYWRRYIYLWINYALYEELVAKDFDRARQVYKACIDIIPHKTFTFAKVWIMFAHFEIRQLDLNAARKIMGVAIGKCPKDKLFRAYIDLELQLREFDRCRKLYEKFLESSPESSQTWIKFAELETLLGDTDRSRAVFTIAVQQPALDMPELLWKAYIDFEIACEEHEKARDLYETLLQRTNHIKVWISMAEFEQTIGNFEGARKAFERANQSLENAEKEERLMLLEAWKECETKSGDQEALKRVETMMPRRVKKRRQIQTEDGVDAGWEEYFDYIFPQDQAAKGSFKLLEAAARWKREREEAAARAAQELDAPIPEGDDDEEKEEAGKDAEEKVREGDSDTDLSESSSSSDSESSSSSSSDSSDSSDDDEDK,not soluble
12,MNTINANDLKTRGIAAIEAQLEEQPEAIIAVRGKDRYVVMQLEHYYYLRECELTAALAETRADLAAGRCEQESPEAHLARLDTLK,not soluble
13,MSTESSHQVHTATVPVRWTDFDRFGHVTNSAYVDLAQEARTVWANDNFAVKGHQIPAVFVRHIEVDYLRPIMPSTSQVVVETEVVHIGNTSFTTRQHLKDGEGHVCATVIAVQVAVDMLTTRPRAIAAHELQVLTQFAASTQQESEQ,not soluble
14,MKQKRLTFLLLLISNLFCASAQKWYKPEIDLKVEELLSQMTVEEKLGYIGGIDWMYTKSIDRLGIHRMRMSDGPQGIGTKGKSTAYPATVTLAATWNENLAYQYGKALGRDCRARNINVILGPAVNIYRAPMCGRNFEYMGEDPYLTSRICVGYIKGVQDQGVMATVKHFVANNSDYDRNNISNDIDERTLNEIYFPAYKAAIQEAEVGAIMTSYNLMNGIYTTENPWLLKEVLRNQWGFKGLVMSDWGSTHYCVPAARSGLDLEMAGGEKMNPKDMAYYLKTGDVTMDMVDEKVRHILRILIAFGFKDGTEADKSIALDDPQSVETA,not soluble
15,MSLDVEDTVKKLNLKFRNIEGERLILAITCDENKNVLMVAFMNEEALKKTLETGYMHYYSTSRKKLWRKGEESGNVQKLIKFYRDCDGDALLFIVEQKGVACHEGYYSCFHYKIEDGELKITGEYYSKREGHHHHHH,soluble
16,MPLHHLTRFPRLEFIGAPTPLEYLPRLSDYLGREIYIKRDDVTPIAMGGNKLRKLEFLVADALREGADTLITAGAIQSNHVRQTAAVAAKLGLHCVALLENPIGTTAENYLTNGNRLLLDLFNTQIEMCDALTDPDAQLQTLATRIEAQGFRPYVIPVGGSSALGAMGYVESALEIAQQCEEVVGLSSVVVASGSAGTHAGLAVGLEHLMPDVELIGVTVSRSVAEQKPKVIALQQAIAGQLALTATADIHLWDDYFAPGYGVPNDAGMEAVKLLASLEGVLLDPVYTGKAMAGLIDGISQKRFNDDGPILFIHTGGAPALFAYHPHV,not soluble
17,MSLSGKVGAPTLEVLRTAVSKRWSANSDLIDAIEHVSRQALLELAERAGQVDEVEDQLFRFSRILDVQPRLAILLGDCAVPAEGRVRLLRKVLERADSTVNPVVVALLSHTVELLRGQAVEEAVLFLAEVAVARRGEIVAQVGAAAELSDAQRTRLTEVLSRIYGHPVTVQLHIDAALLGGLSIAVGDEVIDGTLSSRLAAAEARLPDEGHHHHHH,not soluble
18,MVALQIPSLAATVRQDFPILNQEINGHPLVYLDNAATSQKPRAVLEKLMHYYENDNANVHRGAHQLSVRATDAYEAVRNKVAKFINARSPREIVYTRNATEAINLVAYSWGMNNLKAGDEIITTVMEHHSNLVPWQMVAAKTGAVLKFVQLDEQESFDLEHFKTLLSEKTKLVTVVHISNTLGCVNPAEEIAQLAHQAGAKVLVDACQSAPHYPLDVQLIDCDWLVASGHKMCAPTGIGFLYGKEEILEAMPPFFGGGEMIAEVFFDHFTTGELPHKFEAGTPAIAEAIALGAAVDYLTDLGMENIHNYEVELTHYLWQGLGQIPQLRLYGPNPKHGDRAALASFNVAGLHASDVATMVDQDGIAIRSGHHCTQPLHRLFDASGSARASLYFYNTKEEIDLFLQSLQATIRFFSDDDFTV,soluble
19,MTAYINQEAAAKLDEVFPLAELALKAYGPEFQGELSLLTHSENSTYLVNAFSGQRFVMRVHRAHYHSRTAIESELAWLDALADEGMEVPKAIAGRDGAKVQTIGDGHAERREVVLFHWINGYQPDQSQQESLIQGFRRLGEITAGLHIHARQWQRPHWFERRLMVGAHAAWGNWQKAPYLDKPGAAIIGKALDKVRMELNEYGNAADLFGLIHADLRLTNLLVEEEITRIIDFDDCGFSWFMHDLAAAVSFIEHSPCLNEWVGSWVNGYSTVLPLSAADHAVIPALITQRRVQLLAWTGTHQGAPQADGLGNIWVVQTIELCEKYLANTLLDCKSIS,not soluble
20,MGSDKIHHHHHHMVSEQVRERAKAGPIPKADYQALFDALEAERSPRDPEWVQAWIILHCATRQRAFACQRLLSRYNRQCVKRGTMGEYSEFLRHVQDDLGFYLPNGNAYTENFRGVDVGEIMAQCGELAARFAELELEVFANSGTLLGIVREGTLLEHDNDIDLGVLLTARTFEGAAQEWIALTDKLIADGVGVSRSTWSKVTLKLQKIGAFGVDLFPAWIDADDKVYVYPHTFGALRRDQLLPYDLHGPTGLHLPADAEAMLECNYGEGWRVPNVGWGFDWKTANAQFEAFLTAVEAAAAPD,not soluble
21,SNAMIRFQPITTSDVQHYKFMEELLVESFPPEEYRELEHLREYTDRIGNFHNNIIFDDDLPIGFITYWDFDEFYYVEHFATNPALRNGGYGKRTLEHLCEFLKRPIVLEVERPVEEMAKRRINFYQRHGFTLWEKDYYQPPYKEGDDFLPMYLMVHGNLDAEKDYEGIRHKLHTIVYGVKE,soluble
22,MAHHHHHHMSDEDHDFAHQGGGDNASKTYPMAAGALKKGGYVCINGRPCKVIDLSVSKTGKHGHAKVSIVATDIFTGNRLEDQAPSTHNVEVPFVKTFTYSVLDIQPNEDPSLPSHLSLMDDEGESREDLDMPPDAALATQIKEQFDSGKEVLVVVVSAMGTEQVLQTKNAAEK,soluble
